Results reported in US20220153818A1 (UNIVERSITY COURT OF THE UNIVERSITY OF ABERDEEN, published 2022).

T1: Recombinant Hyr1 N-terminus fragment (amino acids 63-350) with N-terminal 6xHis tag (Candida albicans, UniProt Q5AL03 63-350)
T1 sequence: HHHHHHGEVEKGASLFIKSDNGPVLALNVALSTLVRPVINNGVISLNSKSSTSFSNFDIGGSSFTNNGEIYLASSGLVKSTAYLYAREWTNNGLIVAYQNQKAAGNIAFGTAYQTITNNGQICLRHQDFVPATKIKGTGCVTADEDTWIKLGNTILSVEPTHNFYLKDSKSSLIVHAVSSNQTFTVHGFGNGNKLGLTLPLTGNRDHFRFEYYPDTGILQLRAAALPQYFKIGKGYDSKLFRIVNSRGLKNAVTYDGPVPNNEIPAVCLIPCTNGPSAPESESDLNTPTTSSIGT

B1: AB121 (antibody, V domains shown)
VH: EVQLVESGGTLVQPGGSLRLSCAASGFTFSDYWMNWVRQAPGKGLEWVANIKQDGSEKYYVDSLRGRVTISRDNAQNSVFLQMHSLSVEDTAVYYCARDGYTFGPATTELDHWGRGTLVSVSS
VL: QLVLTQPPSVSVSPGQTASITCSGDELRNKYTSWYQQKSGQSPVLVIYQDNNRPSGIPERFSGSQSGDTATLTISGTQAVDEADYYCQAWVSQTLVFGGGTKLTVL
notes: also called 06-AB-121; anti-Hyr1 mAb AB121
B2: AB123 (antibody, V domains shown)
VH: EVQLLESGGGVVQPGRSLRLSCAASGFTFSNYGMHWVRQAPGKGLEWVAVVWFDGSYKYYTDSVKGRFTISRDNSKSTLYLQMNSLRAEDTAVYYCVSPIMTSAFDIWGPGTMVSVSS
VL: QLVLTQPPSASGSPGQSVTISCTGTSSDVGGSNFVSWYQHHPGKAPKLMIYEVSQRPSGVPDRFSGSKSGNTASLTVSGLQADDEADYYCSSYAGSVVLFGGGTKLTVL
notes: also called 06-AB-123; anti-Hyr1 mAb AB123
B3: AB122 (antibody, V domains shown)
VH: EVQLVQSGGGLAQPGRSLRLSCAASGFGFDDFAMHWVRQPPGKGLEWVSGLTWNGGSIDYAGSVRGRFTISRDNAKNSLFLQMNSLRAEDTALYYCAKGLSGGTMAPFDIWGQGTMVSVSS
VL: QAGLTQPPSVSVAPGQTATIPCGGNNIGSKHVHWYQQKPGQAPVAVVYDDSDRPSGVPERFSGSNSGNTATLTISSVEAGDEADYYCQVWDRSSDHFWLFGGGTRLTVL
notes: also called 06-AB-122; anti-Hyr1 mAb AB122
B4: AB120 (antibody, V domains shown)
VH: EVQLVQSGGGLVQPGGSLGLSCAASGFIFTSYAMTWVRQAPGKGLEWVSVITGNVGTSYYADSVKGRFTISRDNSKKTVSLQMNSLRAEDTAIYYCVKTRYDFSSGYYFDDWGQGTLVSVSS
VL: DIVMTQSPSSVSASVGDKVTITCRASQGISRWLAWYQQKPGEAPELLIYAASSLQSGVPSRFSGSGSGTDFTLTISSLQPEDFATYYCQQANSFPITFGQGTRLQIK
notes: also called 06-AB-120; anti-Hyr1 mAb AB120

What follows are binders tested against T2, human serum albumin (human, UniProt P02768 25-609) (assay: ELISA).
T2 construct: also called HSA
T2 sequence (P02768 25-609 limits assumed): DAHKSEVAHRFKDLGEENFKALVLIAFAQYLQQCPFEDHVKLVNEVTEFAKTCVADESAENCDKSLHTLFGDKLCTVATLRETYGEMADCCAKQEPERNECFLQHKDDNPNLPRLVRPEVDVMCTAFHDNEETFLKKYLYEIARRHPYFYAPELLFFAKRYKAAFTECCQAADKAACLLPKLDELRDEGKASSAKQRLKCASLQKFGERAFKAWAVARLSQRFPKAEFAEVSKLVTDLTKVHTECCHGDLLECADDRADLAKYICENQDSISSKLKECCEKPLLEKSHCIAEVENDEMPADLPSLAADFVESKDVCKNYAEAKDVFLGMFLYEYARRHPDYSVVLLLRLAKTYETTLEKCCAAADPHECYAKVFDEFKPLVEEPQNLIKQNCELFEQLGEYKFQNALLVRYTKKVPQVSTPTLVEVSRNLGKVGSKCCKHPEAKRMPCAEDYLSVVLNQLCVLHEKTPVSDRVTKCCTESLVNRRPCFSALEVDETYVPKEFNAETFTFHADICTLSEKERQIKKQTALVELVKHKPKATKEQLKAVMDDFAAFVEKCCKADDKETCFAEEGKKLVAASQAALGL

Row | Binder | binding result
1 | B1 | no binding
2 | B2 | no binding
3 | B3 | no binding
4 | B4 | no binding

What follows are binders tested against T1, Recombinant Hyr1 N-terminus fragment … (assay: ELISA, plate coated with recombinant Hyr1 N-terminus, titrated IgG1).

Row | Binder | EC50
5 | B1 | 0.0765 µg/mL
6 | B2 | 0.0533 µg/mL
7 | B3 | 0.0496 µg/mL
8 | B4 | 0.104 µg/mL
